Results: PMC9482650, “Quantitative fragmentomics allow affinity mapping of interactomes” (Nature Communications, 2022)

T1: APBA2_1, Q99767
T1 sequence (Q99767 563-664, limits assumed, looked up): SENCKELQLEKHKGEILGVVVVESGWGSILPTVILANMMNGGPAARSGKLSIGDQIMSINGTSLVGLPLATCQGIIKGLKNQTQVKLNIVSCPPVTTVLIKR

T2: GRIP1_3, Q9Y3R0
T2 sequence (Q9Y3R0 247-346, limits assumed, looked up): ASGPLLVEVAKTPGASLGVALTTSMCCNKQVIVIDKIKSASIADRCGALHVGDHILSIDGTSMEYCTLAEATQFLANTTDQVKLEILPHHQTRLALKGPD

T3: MPDZ_12, O75970
T3 sequence (O75970 1857-1958, limits assumed, looked up): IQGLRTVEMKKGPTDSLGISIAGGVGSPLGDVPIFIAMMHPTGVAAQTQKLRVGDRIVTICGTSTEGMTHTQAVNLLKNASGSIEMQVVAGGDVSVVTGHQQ

T4: LNX2_2, Q8N448
T4 sequence (Q8N448 334-432, limits assumed, looked up): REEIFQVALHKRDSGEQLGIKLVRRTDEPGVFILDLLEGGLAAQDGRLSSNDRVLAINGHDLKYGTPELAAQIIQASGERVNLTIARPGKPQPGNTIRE

T5: SIPA1L2, Q9P2F8
T5 sequence (Q9P2F8 945-1036, limits assumed, looked up): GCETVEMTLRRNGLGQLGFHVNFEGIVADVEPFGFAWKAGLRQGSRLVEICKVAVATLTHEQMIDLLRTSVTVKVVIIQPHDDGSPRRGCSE

T6: PDZD7_3, Q9H5P4
T6 sequence (Q9H5P4 857-944, limits assumed, looked up): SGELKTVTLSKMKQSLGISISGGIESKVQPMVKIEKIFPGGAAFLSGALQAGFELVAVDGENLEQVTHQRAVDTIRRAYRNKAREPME

T7: SNTA1, Q13424
T7 sequence (Q13424 82-180, limits assumed, looked up): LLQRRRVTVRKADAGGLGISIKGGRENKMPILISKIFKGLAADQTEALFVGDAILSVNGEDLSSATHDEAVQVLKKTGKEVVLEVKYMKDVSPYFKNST

T8: PTPN13_1, Q12923
T8 sequence (Q12923 1088-1188, limits assumed, looked up): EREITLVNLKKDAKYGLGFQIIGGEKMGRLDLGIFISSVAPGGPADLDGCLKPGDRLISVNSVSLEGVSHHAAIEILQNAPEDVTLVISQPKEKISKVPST

T9: GRIP1_2, Q9Y3R0
T9 sequence (Q9Y3R0 145-248, limits assumed, looked up): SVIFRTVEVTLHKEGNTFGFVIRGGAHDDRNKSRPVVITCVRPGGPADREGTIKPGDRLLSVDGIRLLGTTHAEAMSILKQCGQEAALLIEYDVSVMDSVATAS

T10: ARHGEF11, O15085
T10 sequence (O15085 42-136, limits assumed, looked up): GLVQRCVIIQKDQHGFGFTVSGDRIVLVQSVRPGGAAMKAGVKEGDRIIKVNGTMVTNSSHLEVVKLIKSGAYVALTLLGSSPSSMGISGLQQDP

T11: GRIP1_4, Q9Y3R0
T11 sequence (Q9Y3R0 467-571, limits assumed, looked up): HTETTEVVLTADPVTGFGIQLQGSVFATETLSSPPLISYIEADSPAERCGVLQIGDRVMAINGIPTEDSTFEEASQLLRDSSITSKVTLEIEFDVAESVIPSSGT


Experiments:
Assay in all cases: holdup assay
Parameters in all cases: key: below the threshold = too weak to quantify, mostly under pKd 3.1 to 4
Conditions in all cases: plain residues with an end cap or a label only (N-terminal biotin on a linker: ado-ado)
Inadl_4, Q8NI35 = target: Inadl_4, Q8NI35
APBA2_1, Q99767 = target: T1, APBA2_1, Q99767
HTRA2, O43464 = target: HTRA2, O43464
GRIP1_3, Q9Y3R0 = target: T2, GRIP1_3, Q9Y3R0
MPDZ_12, O75970 = target: T3, MPDZ_12, O75970
LNX2_2, Q8N448 = target: T4, LNX2_2, Q8N448
SIPA1L2, Q9P2F8 = target: T5, SIPA1L2, Q9P2F8
PDZD7_3, Q9H5P4 = target: T6, PDZD7_3, Q9H5P4
GOPC, Q9HD26 = target: GOPC, Q9HD26
SNTA1, Q13424 = target: T7, SNTA1, Q13424
PTPN13_1, Q12923 = target: T8, PTPN13_1, Q12923
PDLIM1, O00151 = target: PDLIM1, O00151
ARHGEF12, Q9NZN5-2 = target: ARHGEF12, Q9NZN5-2
SCRIB_1, Q14160 = target: SCRIB_1, Q14160
GRIP1_2, Q9Y3R0 = target: T9, GRIP1_2, Q9Y3R0
ARHGEF11, O15085 = target: T10, ARHGEF11, O15085
Inadl_3, Q8NI35 = target: Inadl_3, Q8NI35
GRIP2_7, Q9C0E4 = target: GRIP2_7, Q9C0E4
LNX1_2, Q8TBB1 = target: LNX1_2, Q8TBB1
PICK1, Q9NRD5 = target: PICK1, Q9NRD5
GIPC2, Q8TF65 = target: GIPC2, Q8TF65
Inadl_1, Q8NI35 = target: Inadl_1, Q8NI35
LDB3, O75112 = target: LDB3, O75112
DLG2_3, Q15700 = target: DLG2_3, Q15700
DLG2_2, Q15700 = target: DLG2_2, Q15700
MAST2, Q6P0Q8 = target: MAST2, Q6P0Q8
GRIP1_4, Q9Y3R0 = target: T11, GRIP1_4, Q9Y3R0

Sequence of PICK1, Q9NRD5 (Q9NRD5 17-115): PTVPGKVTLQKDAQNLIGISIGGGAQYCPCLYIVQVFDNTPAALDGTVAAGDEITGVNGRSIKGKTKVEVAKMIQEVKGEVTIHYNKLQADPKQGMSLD
Sequence of GIPC2, Q8TF65 (Q8TF65 112-203): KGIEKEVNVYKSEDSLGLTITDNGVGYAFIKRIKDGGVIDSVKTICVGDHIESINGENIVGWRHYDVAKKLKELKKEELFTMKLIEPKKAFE
Sequence of LNX1_2, Q8TBB1 (Q8TBB1 371-470): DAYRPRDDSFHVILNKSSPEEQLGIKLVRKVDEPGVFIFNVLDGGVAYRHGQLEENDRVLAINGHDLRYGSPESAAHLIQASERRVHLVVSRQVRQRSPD
Sequence of SCRIB_1, Q14160 (Q14160 718-814): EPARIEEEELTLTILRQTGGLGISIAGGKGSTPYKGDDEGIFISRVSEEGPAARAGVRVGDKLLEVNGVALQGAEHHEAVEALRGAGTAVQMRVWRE
Sequence of HTRA2, O43464 (O43464 355-458): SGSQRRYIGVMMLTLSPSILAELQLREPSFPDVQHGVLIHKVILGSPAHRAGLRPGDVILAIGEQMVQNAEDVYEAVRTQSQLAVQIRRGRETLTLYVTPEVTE
Sequence of GRIP2_7, Q9C0E4 (Q9C0E4 934-1023): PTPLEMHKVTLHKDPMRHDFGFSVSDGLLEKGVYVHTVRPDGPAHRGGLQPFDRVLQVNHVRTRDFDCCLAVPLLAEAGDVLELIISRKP
Sequence of Inadl_1, Q8NI35 (Q8NI35 113-229): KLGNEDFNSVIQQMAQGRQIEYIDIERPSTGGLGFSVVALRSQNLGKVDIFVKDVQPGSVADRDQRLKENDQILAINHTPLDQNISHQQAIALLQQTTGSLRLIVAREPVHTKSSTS
Sequence of PDLIM1, O00151 (O00151 1-87): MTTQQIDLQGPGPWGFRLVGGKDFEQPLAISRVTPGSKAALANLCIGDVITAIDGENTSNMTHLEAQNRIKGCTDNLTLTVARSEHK
Sequence of MAST2, Q6P0Q8 (Q6P0Q8 1099-1202): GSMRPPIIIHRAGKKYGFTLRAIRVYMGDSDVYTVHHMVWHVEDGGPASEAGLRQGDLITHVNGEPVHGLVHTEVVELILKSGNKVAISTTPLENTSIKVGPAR
Sequence of ARHGEF12, Q9NZN5-2 (Q9NZN5 other isoform, or with tags, fused parts or gaps): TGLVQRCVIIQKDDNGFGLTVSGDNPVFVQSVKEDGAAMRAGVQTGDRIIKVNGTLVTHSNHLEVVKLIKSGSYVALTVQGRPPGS
Sequence of Inadl_3, Q8NI35 (Q8NI35 359-469): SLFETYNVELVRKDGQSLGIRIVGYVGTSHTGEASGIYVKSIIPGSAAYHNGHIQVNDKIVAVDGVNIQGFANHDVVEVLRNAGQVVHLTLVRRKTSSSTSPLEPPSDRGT
Sequence of LDB3, O75112 (O75112 1-94): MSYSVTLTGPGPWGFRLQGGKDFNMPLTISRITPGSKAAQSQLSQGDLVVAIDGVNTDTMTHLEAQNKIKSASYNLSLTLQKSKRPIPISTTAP
Sequence of Inadl_4, Q8NI35 (Q8NI35 547-651): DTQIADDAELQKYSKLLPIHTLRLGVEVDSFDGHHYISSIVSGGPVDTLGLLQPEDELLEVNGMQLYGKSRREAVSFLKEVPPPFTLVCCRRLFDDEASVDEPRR

Binder	pKd (Inadl_4, Q8NI35)	pKd (APBA2_1, Q99767)	pKd (HTRA2, O43464)	pKd (GRIP1_3, Q9Y3R0)	pKd (MPDZ_12, O75970)	pKd (LNX2_2, Q8N448)	pKd (SIPA1L2, Q9P2F8)	pKd (PDZD7_3, Q9H5P4)	pKd (GOPC, Q9HD26)	pKd (SNTA1, Q13424)	pKd (PTPN13_1, Q12923)	pKd (PDLIM1, O00151)	pKd (ARHGEF12, Q9NZN5-2)	pKd (SCRIB_1, Q14160)	pKd (GRIP1_2, Q9Y3R0)	pKd (ARHGEF11, O15085)	pKd (Inadl_3, Q8NI35)	pKd (GRIP2_7, Q9C0E4)	pKd (LNX1_2, Q8TBB1)	pKd (PICK1, Q9NRD5)	further results
SRSVVESDEL [MYPN, Q86TC9]	below the threshold	below the threshold	below the threshold	below the threshold	below the threshold	below the threshold	below the threshold	3.75	below the threshold	3.6	below the threshold	5.11	3.58	3.49	below the threshold	3.74	below the threshold	below the threshold	below the threshold	below the threshold	pKd (GIPC2, Q8TF65): below the threshold; pKd (Inadl_1, Q8NI35): below the threshold; pKd (LDB3, O75112): 5.06; pKd (DLG2_3, Q15700): below the threshold; pKd (DLG2_2, Q15700): below the threshold; pKd (MAST2, Q6P0Q8): 4.46; pKd (GRIP1_4, Q9Y3R0): below the threshold
DTKNYKQTSV [CRIPT, Q9P021]	below the threshold	below the threshold	below the threshold	below the threshold	below the threshold	3.66	below the threshold	3.94	3.87	4.74	below the threshold	below the threshold	4.36	4.88	below the threshold	4.12	below the threshold	below the threshold	below the threshold	4.15	pKd (GIPC2, Q8TF65): below the threshold; pKd (Inadl_1, Q8NI35): below the threshold; pKd (LDB3, O75112): below the threshold; pKd (DLG2_3, Q15700): 5.29; pKd (DLG2_2, Q15700): 4.71; pKd (MAST2, Q6P0Q8): 5.35; pKd (GRIP1_4, Q9Y3R0): below the threshold
PSVGSKKTVL [REELD1, A0A1B0GV85]	below the threshold	below the threshold	below the threshold	below the threshold	below the threshold	below the threshold	below the threshold	4.67	4.26	3.73	below the threshold	below the threshold	5.05	below the threshold	below the threshold	4.2	below the threshold	below the threshold	below the threshold	below the threshold	pKd (GIPC2, Q8TF65): below the threshold; pKd (Inadl_1, Q8NI35): below the threshold; pKd (LDB3, O75112): below the threshold; pKd (DLG2_3, Q15700): below the threshold; pKd (DLG2_2, Q15700): below the threshold; pKd (MAST2, Q6P0Q8): 5.05; pKd (GRIP1_4, Q9Y3R0): below the threshold
DRIQSCLSDA [SBF1, O95248]	below the threshold	below the threshold	below the threshold	below the threshold	3.49	below the threshold	below the threshold	below the threshold	below the threshold	below the threshold	3.49	below the threshold	below the threshold	below the threshold	below the threshold	below the threshold	below the threshold	below the threshold	below the threshold	below the threshold	pKd (GIPC2, Q8TF65): below the threshold; pKd (Inadl_1, Q8NI35): below the threshold; pKd (LDB3, O75112): below the threshold; pKd (DLG2_3, Q15700): 3.78; pKd (DLG2_2, Q15700): below the threshold; pKd (MAST2, Q6P0Q8): 4.35; pKd (GRIP1_4, Q9Y3R0): below the threshold
